B1: SPDGF (Apt35-FAM/cDNA12-BHQ1/cDNADCV) (mixed)
DNA 1: AAGGCTACGGCACGTAGAGCATCACCATGATCCTGTGTGGTCTATGTCGTCGTTCG
DNA 2: TGCCGTAGCCTT
DNA 3: AAGTATTACCAGAAACGAACGACGACATAGACCACA
B2: mSPDGF (mApt35-FAM/cDNA12-BHQ1/cDNADCV) (mixed)
DNA 1: AAGGCTACGGCACGATCTCGTAGTGGTCTGACTGCTGTGGTCTATGTCGTCGTTCG
DNA 2: TGCCGTAGCCTT
DNA 3: B1 DNA 3

Experiments:
PDGF-BB [1] = target: T1, PDGF-BB (human, UniProt P01127 82-190); assay: structure-switching fluorescence
PDGF-BB [2] = target: T1, PDGF-BB; assay: structure-switching fluorescence; remark: listed apart in the source

T1 sequence (P01127 82-190): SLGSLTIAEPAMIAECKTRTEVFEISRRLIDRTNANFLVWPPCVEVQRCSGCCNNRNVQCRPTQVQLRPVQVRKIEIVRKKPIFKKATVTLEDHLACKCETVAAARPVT

| Binder | binding signal (PDGF-BB [1]) | binding result (PDGF-BB [2]) |
| --- | --- | --- |
| B1 | ~6.9 fold fluorescence increase | – |
| B2 | – | no binding |

Reference: publication PMC10631208
